# According to article PMC7665024, “Anti-apoptotic BCL-2 regulation by changes in dynamics of its long unstructured loop” (Communications Biology, 2020):
# Entries after “also recorded” stand apart in the source; their conditions may differ.
# B1: EEE (protein)
# chain: MAHAGRTGYDNREIVMKYIHYKLSQRGYEWDAGDVGAAPPGAAPAPGIFSSQPGHTPHPAASRDPVAREEPLQTPAAPGAAAGPALEPVPPVVHLTLRQAGDDFSRRYRRDFAEMSSQLHLTPFTARGRFATVVEELFRDGVNWGRIVAFFEFGGVMCVESVNREMSPLVDNIALWMTEYLNRHLHTWIQDNGGWDAFVELYGPSMRPLFDFSWLSL
# modifications: Pacific Blue (maleimide) on the native cysteine 158; left off: His6, C-terminal, state not stated
# Assays:
# [1] = test system: BAX-induced MOMP, isolated mitochondria; test: In vitro cytochrome c release assay, isolated mitochondria (BCL-2 mutants); assay type: biochemical, mouse; settings: for Cytochrome c release, Average: Bax+BimBH3 = 100, mean of n = 6
# Text: To verify this implication, we performed in vitro cytochrome c release assay using isolated mitochondria. […] Lane 3 (Fig. 2a) is a positive control for the cytochrome c release assays. […] (More experimental results in support of the observed BCL-2 activity are given in Supplementary Fig. 3.)
# (§1) Fig. 2 In vitro assays for evaluating BCL-2 activity. a Cytochrome c release assay with various BCL-2 mutants at varying concentrations. All of the release amounts are normalized to the result caused by the BimBH3-induced BAX activation (lane 3). […] GUVs provide a MOM-like environment devoid of endogenous mitochondrial proteins.
# A Dounce homogenizer was used with 20 strokes to homogenize mouse liver tissue (0.2 mg). The mitochondria fraction was separated using centrifugation according to the Mitochondria Isolation Kit (Thermo Scientific). Mitochondria Assay Buffer A (MAB A) (200 mM mannitol, 68 mM sucrose, 10 mM HEPES, 110 mM KCl, 1 mM EDTA, […], 0.1% BSA, protease inhibitor) was used to wash the mitochondria fraction, followed by centrifugation at 12,000 × g. The pellet was collected and resuspended using enough MAB B (i.e., MBA A without 0.1% BSA) and then quantified by bradford assay (Bio-Rad) to yield a final protein content of the mitochondrial fraction ~3 mg/mL. The final mitochondria fraction was placed on ice for further downstream processing or stored at −80 °C with additional 300 mM trehalose for future use[38]. […] The mixture was then incubated with BAX (0.1 μM) and 10 μL of the mitochondrial fraction ([…]) for 0.5 h at 37 °C. Final volume was adjusted to 30 μL. Following centrifugation at 12,000×g for 10 min, the supernatant was subjected to subsequent immunoblotting (IB). Quantification of IB was done using ImageJ software (version 1.49, NIH). The fraction of cytochrome c released (%) is calculated by (I–I0)/(Imax–I0)×100%, where Imax and I0 are the analyzed intensities of cytochrome c with and without activated BAX, respectively.
# Samples were resolved by SDS–PAGE (15%) and electroblotted onto a 0.45 μm PVDF membrane (GE Healthcare). Primary antibodies used in this study included rabbit anti-BAX N20 (Santa Cruz Biotechnology), mouse anti-BCL-2(C2) (Santa Cruz Biotechnology) and mouse anti-cytochrome c antibodies (clone 7H8.2C12, Millipore). Detection was achieved using sheep anti-mouse IgG HRP (GE Healthcare) and donkey anti-rabbit IgG HRP (GE Healthcare) secondary antibodies. Proteins were visualized by 4CN Plus Chromogenic Substrate (PerkinElmer).
# [2] = test system: BCL-2 (EEE or WT):BimBH3, BAX-induced MOMP; test: Cytochrome c release assay at varying amount of ABT-199; assay type: biochemical, mouse
# Protocol: as §1
# The cytochrome c release assays were performed at varying amounts of ABT-199.
# A Dounce homogenizer was used with 20 strokes to homogenize mouse liver tissue (0.2 mg). The mitochondria fraction was separated using centrifugation according to the Mitochondria Isolation Kit (Thermo Scientific). Mitochondria Assay Buffer A (MAB A) (200 mM mannitol, 68 mM sucrose, 10 mM HEPES, 110 mM KCl, 1 mM EDTA, […], 0.1% BSA, protease inhibitor) was used to wash the mitochondria fraction, followed by centrifugation at 12,000 × g. The pellet was collected and resuspended using enough MAB B (i.e., MBA A without 0.1% BSA) and then quantified by bradford assay (Bio-Rad) to yield a final protein content of the mitochondrial fraction ~3 mg/mL. […] Quantification of IB was done using ImageJ software (version 1.49, NIH). The fraction of cytochrome c released (%) is calculated by (I–I0)/(Imax–I0)×100%, where Imax and I0 are the analyzed intensities of cytochrome c with and without activated BAX, respectively. […]
# BCL-2-dependent tumors = settings: cited from earlier work
# Text: It is worth noting that the binding groove is also responsible for the engagement of an orally bioavailable small molecule ABT-199 (Venetoclax)[8],[13]. […] ABT-199 can displace the bound pro-apoptotic activator from the groove of BCL-2 efficiently and, consequently, cause the release of pro-apoptotic activators, promoting MOMP and apoptosis. This study will use ABT-199 to examine whether the BCL-2 mutants studied here have the same response as FL-BCL-2 to ABT-199.
# trypsin = test: Limited proteolysis by trypsin; settings: BCL-2 20 μM, trypsin 0.04-9.44 μM, 1 h, room temperature, SDS-PAGE
# Protocol: Fig. 3 Structural differences between WT and EEE. a An illustration of mutation sites prepared for spin-labeling ESR studies. b Distance distributions of various double-spin-labeled BCL-2 (WT or EEE) mutants are determined from the experimental DEER data. […] As highlighted, the displacements of α1 and α2 account for the major differences. d An illustration highlighting the positions of α2–α7 and the binding groove. Structures of WT and EEE are colored as in c. Helices α4–α7 change little between the WT and EEE. The displacement of α2 is critical to the change in the local environment of the binding groove. e Limited proteolysis of BCL-2 (20 μM) analyzed on SDS–PAGE. Trypsin concentrations were 0.04, 0.11, 0.34, 1.03, 3.11, 9.44 μM. Incubation time was 1 h at room temperature. It confirms that tertiary conformations of WT versus EEE are indeed different.
# BCL-2 conformational change was assessed by limited proteolysis using trypsin (MERCK). In brief, 5 µg BCL-2 (WT or EEE) was digested at enzyme/substrate ratios ranging from 1:2 to 1:461 for 1 h at room temperature. Proteolysis was quenched by adding 1 mM PMSF, and then samples were confirmed by SDS–PAGE with Coomassie blue staining.
# apoptotic cell death = settings: phosphomimetic BCL-2; cited from earlier work
# Text: However, the three phosphorylation-related residues are in a 65-residue-long, highly flexible loop domain (denoted by FLD, herein; Fig. 1a) that is often removed for ...
# [3] = BAX 0.1 µM, BimBH3 2 µM, Fig. 2a
Molecule,"inhibition of BAX-induced MOMP / cytochrome c release (in words) [1, 3]","effect on cytochrome c release (in words) ([2]; ABT-199 4–30 µM added to pre-incubated BCL-2 (EEE or WT), BimBH3 2 µM, BAX 0.1 µM, mitochondria, Fig. 2b)",displacement of BimBH3 from BCL-2 (in words) ([2]; BCL-2 EEE or WT),inhibition of tumor growth (in words) (BCL-2-dependent tumors),susceptibility to trypsin proteolysis (in words) (trypsin),protection against apoptotic cell death (in words) (apoptotic cell death),"capacity to inhibit BAX-induced MOMP compared with S70E and WT (in words) [1, 3]","Cytochrome c release, Average ([1]; BAX+BimBH3 + 2uM BCL-2 protein)","Cytochrome c release, Average ([1]; BAX+BimBH3 + 4uM BCL-2 protein)","Cytochrome c release, Average ([1]; BAX+BimBH3 + 6uM BCL-2 protein)"
BAX: full-length mouse BAX; in FRET the single-cysteine variant BAX136C labeled with AL488 [reference compound],inactive,,,,,,,,,
"CC1(C)CCC(CN2CCN(c3ccc(C(=O)NS(=O)(=O)c4ccc(NCC5CCOCC5)c([N+](=O)[O-])c4)c(Oc4cnc5[nH]ccc5c4)c3)CC2)=C(c2ccc(Cl)cc2)C1 [ABT-199, Venetoclax, reference compound]",,the greater the release of cytochrome c was detected,can displace BimBH3 from BCL-2 (either EEE or WT),potently inhibits the growth of BCL-2-dependent tumors,,,,,,
B1,largely inhibited,,,,relatively resistant,enhanced to protect cells against apoptotic cell death,evidently greater than those of S70E (lanes 7–9) and WT (lanes 10–12); also recorded: the most potent in inhibiting the BAX-induced MOMP,66.3319,14.0555,8.953
